{"source": "patent US5976877", "binders": {"B1": {"name": "LAG-3 protein (Lymphocyte Activation Gene-3), mature membrane protein of 470 amino acids (receptor)", "chain": "VPVVWAQEGAPAQLPCSPTIPLQDLSLLRRAGVTWQHQPDSGPPAAAPGHPLAPGPHPAAPSSWGPRPRRYTVLSVGPGGLRSGRLPLQPRVQLDERGRQRGDFSLWLRPARRADAGEYRAAVHLRDRALSCRLRLRLGQASMTASPPGSLRASDWVILNCSFSRPDRPASVHWFRNRGQGRVPVRESPHHHLAESFLFLPQVSPMDSGPWGCILTYRDGFNVSIMYNLTVLGLEPPTPLTVYAGAGSRVGLPCRLPAGVGTRSFLTAKWTPPGGGPDLLVTGDNGDFTLRLEDVSQAQAGTYTCHIHLQEQQLNATVTLAIITVTPKSFGSPGSLGKLLCEVTPVSGQERFVWSSLDTRSQRSFSGPWLEAQEAQLLSQPWQCQLYQGERLLGAAVYFTELSSPGAQRSGRAPGALPAGHLLLFLTLGVLSLLLLVTGAFGFHLWRRQWRPRRFSALEQGIHPRRLRAR"}}, "target": "HLA class II molecules on the Burkitt lymphoma line Raji", "data": [{"binder": "B1", "values": [{"measurement": "rosette formation / adhesion of Raji cells to transfected COS-7 cells", "value": 23, "unit": "%"}]}]}
